Key:
[1] = target: Dut80α D81A D110C S168C (Staphylococcus aureus phage 80α); assay: BLI; as a1 but non-reducing buffer (400 mM NaCl, 75 mM HEPES pH 7.5, 5 mM MgCl2); no nucleotide; 1:1 model
[2] = target: Dut80α D81A D110C S168C (Staphylococcus aureus phage 80α); assay: BLI; as a1, buffer STL supplemented with 0.5 mM dUPNPP (baselines and dissociation without nucleotide); 1:1 model
[3] = target: Dut80α^D81A (Staphylococcus aureus phage 80α); assay: as above
[4] = target: Dut80α^F165A (Staphylococcus aureus phage 80α); assay: as above
[5] = target: Dut80α^WT, wild-type dUTPase of phage 80α (Staphylococcus aureus phage 80α); assay: as above
[6] = target: Dut80α^Y84I (Staphylococcus aureus phage 80α); assay: as above
[7] = target: Dut80α^ΔV, Dut80α motif V deletion mutant (Staphylococcus aureus phage 80α); assay: as above
[8] = target: Dut80α^ΔVI, Dut80α lacking motif VI (Staphylococcus aureus phage 80α); assay: as above
[9] = target: Dutϕ11^(ΔVI F164A) (Staphylococcus aureus phage ϕ11); assay: as above
[10] = target: Dutϕ11^WT, wild-type dUTPase of phage ϕ11 (Staphylococcus aureus phage ϕ11); assay: as above
[11] = target: Dutϕ11^ΔV, Dutϕ11 motif V deletion mutant (Staphylococcus aureus phage ϕ11); assay: as above
[12] = target: Dutϕ11^ΔV-ΔVI (Staphylococcus aureus phage ϕ11); assay: as above
[13] = target: Dutϕ11^ΔVI, Dutϕ11 lacking motif VI (Staphylococcus aureus phage ϕ11); assay: as above
[14] = target: Dut80α D81A D110C S168C (Staphylococcus aureus phage 80α); assay: BLI; BLItz; His-tagged Dut immobilised at 1 μM on Ni-NTA biosensors, Stl in solution (at least five dilutions, 4 to 0.062 μM); buffer STL (400 mM NaCl, 75 mM HEPES pH 7.5, 5 mM MgCl2, 2 mM DTT); no nucleotide; 1:1 model
[15] = target: Dut80α^D81A (Staphylococcus aureus phage 80α); assay: as above
[16] = target: Dut80α^ΔV, Dut80α motif V deletion mutant (Staphylococcus aureus phage 80α); assay: as above
[17] = target: Dut80α^ΔVI-IV-11 (Staphylococcus aureus phage 80α); assay: as above
[18] = target: Dutϕ11^IV-80α (Staphylococcus aureus phage ϕ11); assay: as above
[19] = target: Dutϕ11^ΔVI, Dutϕ11 lacking motif VI (Staphylococcus aureus phage ϕ11); assay: as above

“Stl repressor from SaPIbov1 (natural protein)” was tested, and the Kd [1] was 6 nM, the koff [1] was 0.00085 s⁻¹ and the kon [1] was 140000 M⁻¹ s⁻¹. For the same substance, the Kd [2] was 192 nM, the koff [2] was 0.005 s⁻¹ and the kon [2] was 26000 M⁻¹ s⁻¹. The Kd [3] was greater than 1000 nM, the Kd [4] was greater than 1000 nM and the Kd [5] was 466 nM. It also gave a koff [5] of 0.0014 s⁻¹, a kon [5] of 3000 M⁻¹ s⁻¹ and a Kd [6] greater than 1000 nM. For the same substance, the Kd [7] was 525 nM, the koff [7] was 0.0042 s⁻¹ and the kon [7] was 8000 M⁻¹ s⁻¹. For the same substance, the Kd [8] was greater than 1000 nM, the Kd [9] was 378 nM and the koff [9] was 0.0031 s⁻¹. It also gave a kon [9] of 8200 M⁻¹ s⁻¹, a Kd [10] of 300 nM and a koff [10] of 0.0006 s⁻¹. For the same substance, the kon [10] was 2000 M⁻¹ s⁻¹, the Kd [11] was 3.84 nM and the koff [11] was 5e-05 s⁻¹. It also gave a kon [11] of 13000 M⁻¹ s⁻¹, a Kd [12] of 200 nM and a koff [12] of 0.0019 s⁻¹. For the same substance, the kon [12] was 9500 M⁻¹ s⁻¹, the Kd [13] was 12.7 nM and the koff [13] was 0.00014 s⁻¹. For the same substance, the kon [13] was 11000 M⁻¹ s⁻¹, the Kd [14] was 58.3 nM and the koff [14] was 0.0014 s⁻¹. The kon [14] was 24000 M⁻¹ s⁻¹, the Kd [15] was 161 nM and the koff [15] was 0.0042 s⁻¹. The kon [15] was 26000 M⁻¹ s⁻¹, the Kd [16] was 530 nM and the koff [16] was 0.009 s⁻¹. The kon [16] was 17000 M⁻¹ s⁻¹, the Kd [17] was 4.56 nM and the koff [17] was 0.00026 s⁻¹. For the same substance, the kon [17] was 57000 M⁻¹ s⁻¹, the Kd [18] was 3.33 nM and the koff [18] was 0.00025 s⁻¹. The kon [18] was 75000 M⁻¹ s⁻¹, the Kd [19] was 11.4 nM and the koff [19] was 0.00024 s⁻¹. It also gave a kon [19] of 21000 M⁻¹ s⁻¹.

From PMC4914113, “Another look at the mechanism involving trimeric dUTPases in Staphylococcus aureus pathogenicity island induction involves novel players in the party” (Nucleic Acids Research, 2016)
